In patent US20190016826A1 (Genentech, published 2019):

Tests used:
[1] = target: T1, Protease domain of human HtrA1 (HuHtrA1_PD), residues D161-K379 (human, UniProt F1N152 168-386 (bovine entry)); assay: ELISA on plate-coated wild-type HuHtrA1_PD, row WT (Example 7); column head on the sheet reads YW505.94 Fab, legend paragraph 70 says IgG94
T1 construct: Expressed in E. coli; not shown: thrombin cleavage site between tag and D161
Experimental: (§1) The mutants were expressed in E. coli and the trimers purified by size exclusion chromatography as described in Example 2. Binding was determined using an ELISA assay, which was conducted using a MAXISORP™ microtiter plate coated with HuHtrA1_PD mutants at 2 μg/ml in PBS for 1 h, followed by blocking with PBST buffer (0.5% BSA and 0.05% Tween 20 in PBS) for 1 h at room temperature. […] The plates were washed with PBT buffer (0.05% Tween 20 in PBS), and HRP-conjugated goat anti-human IgG (H+L) (Invitrogen) was added (1:5000 in PBST buffer) and incubated for 1 h. The plates were washed with PBT buffer and developed by adding tetramethylbenzidine substrate (Kirkegaard and Perry Laboratories, Gaithersburg, Md.). The absorbance at 450 nm was plotted as a function of antibody concentration in solution to determine EC₅₀ values.

[2] = target: T2, K241A; assay: ELISA on plate-coated HuHtrA1_PD mutants (Example 7); column head on the sheet reads YW505.94 Fab, legend paragraph 70 says IgG94
T2 construct: also called HuHtrA1_PD(K241A)
Experimental: as §1
(§2) In trypsin-like serine proteases these loops are known to be part of the specificity determining region that interacts with substrates.

[3] = target: T3, R227A; assay: as above
T3 construct: also called HuHtrA1_PD(R227A)
Experimental: as §1, §2

[4] = target: T4, HuHtrA1_PD(S328A), catalytically inactive protease domain of human HtrA1 (human, UniProt F1N152 168-386 (bovine entry)); assay: as above
T4 construct: Trimer; not shown: thrombin cleavage site
T4 chain: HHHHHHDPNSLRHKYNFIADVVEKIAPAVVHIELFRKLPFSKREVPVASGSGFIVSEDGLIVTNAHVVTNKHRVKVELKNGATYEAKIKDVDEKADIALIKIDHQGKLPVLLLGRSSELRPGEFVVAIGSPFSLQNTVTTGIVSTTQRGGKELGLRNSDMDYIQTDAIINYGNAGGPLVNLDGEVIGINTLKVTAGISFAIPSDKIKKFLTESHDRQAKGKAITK
Experimental: as §1, §2

T1 sequence (F1N152 other isoform, or with tags, fused parts or gaps): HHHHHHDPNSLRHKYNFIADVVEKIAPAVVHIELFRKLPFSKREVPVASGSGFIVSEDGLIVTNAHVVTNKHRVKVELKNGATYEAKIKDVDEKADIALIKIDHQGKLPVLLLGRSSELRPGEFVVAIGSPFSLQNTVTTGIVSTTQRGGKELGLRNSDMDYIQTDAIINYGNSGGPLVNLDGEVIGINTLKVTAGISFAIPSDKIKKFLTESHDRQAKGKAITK

B1: Fab94 (anti-HtrA1 antibody YW505.94, Fab format) (Fab, V domains shown)
VH: EVQLVESGGGLVQPGGSLRLSCAASGFNISGYYIHWVRQAPGKGLEWVGWIDPYGGDTNYADSVKGRFTISADTSKNTAYLQMNSLRAEDTAVYYCARGTFLTSWGHYFDYWGQGT
VL: DIQMTQSPSSLSASVGDRVTITCRASQDVSTAVAWYQQKPGKAPKLLIYSASFLYSGVPSRFSGSGSGTDFTLTISSLQPEDFATYYCQQSYTTPPTFGQGTKVEIKR
[1]
  EC50: 5.6 nM
  Relative to WT EC50 Fold Decrease: 1 fold
[2]
  EC50: 23 nM
  Relative to WT EC50 Fold Decrease: 4.1 fold
[3]
  EC50: 25.9 nM
  Relative to WT EC50 Fold Decrease: 4.6 fold
[4]
  EC50: 2.3 nM
  Relative to WT EC50 Fold Decrease: 0.4 fold
